Earlier results as cited in article PMC4610346.

Molecular target: Jun leucine zipper (Homo sapiens) (UniProt P05412)
Sequence (P05412 277-311): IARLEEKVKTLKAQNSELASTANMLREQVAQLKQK

Fos leucine zipper, sequence (P01100 162-196): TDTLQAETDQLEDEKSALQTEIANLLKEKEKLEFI

Kd: 54 nM
Substance: Fos leucine zipper (from UniProt P01100)
